{
  "source": "paper PMC12106642",
  "about": "(Nature Communications, 2025)",
  "target": "the molecule itself",
  "assay": "high-speed atomic force microscopy",
  "note": "“And” between values parts separate entries of the source, which are not always exact repeats. Identical values can stand only once.",
  "data": [
    {"protein": "Human Recombinant ADAR Protein NM_001025107 (ADAR1-p110) (enzyme, UniProt P55265-5 1-931, looked up) MAEIKEKICDYLFNVSDSSALNLAKNIGLTKARDINAVLIDMERQGDVYRQGTTPPIWHLTDKKRERMQIKRNTNSVPETAPAAIPETKRNAEFLTCNIPTSNASNNMVTTEKVENGQEPVIKLENRQEARPEPARLKPPVHYNGPSKAGYVDFENGQWATDDIPDDLNSIRAAPGEFRAIMEMPSFYSHGLPRCSPYKKLTECQLKNPISGLLEYAQFASQTCEFNMIEQSGPPHEPRFKFQVVINGREFPPAEAGSKKVAKQDAAMKAMTILLEEAKAKDSGKSEESSHYSTEKESEKTAESQTPTPSATSFFSGKSPVTTLLECMHKLGNSCEFRLLSKEGPAHEPKFQYCVAVGAQTFPSVSAPSKKVAKQMAAEEAMKALHGEATNSMASDNQPEGMISESLDNLESMMPNKVRKIGELVRYLNTNPVGGLLEYARSHGFAAEFKLVDQSGPPHEPKFVYQAKVGGRWFPAVCAHSKKQGKQEAADAALRVLIGENEKAERMGFTEVTPVTGASLRRTMLLLSRSPEAQPKTLPLTGSTFHDQIAMLSHRCFNTLTNSFQPSLLGRKILAAIIMKKDSEDMGVVVSLGTGNRCVKGDSLSLKGETVNDCHAEIISRRGFIRFLYSELMKYNSQTAKDSIFEPAKGGEKLQIKKTVSFHLYISTAPCGDGALFDKSCSDRAMESTESRHYPVFENPKQGKLRTKVENGEGTIPVESSDIVPTWDGIRLGERLRTMSCSDKILRWNVLGLQGALLTHFLQPIYLKSVTLGYLFSQGHLTRAICCRVTRDGSAFEDGLRHPFIVNHPKVGRVSIYDSKRQSGKTKETSVNWCLADGYDLEILDGTRGTVDGPRNELSRVSKKNIFLLFKKLCSFRYRRDLLRLSYGEAKKAARDYETAKNYFKKGLKDMGYGNWISKPQEEKNFYLCPV", "values": [
      {"measurement": "stoichiometry N", "value": "2 and 3 and 4"}
    ]}
  ]
}
